Assay results from article PMC4942678, “A Salmonella Toxin Promotes Persister Formation through Acetylation of tRNA” (Molecular Cell, 2016).

B1: TacT^Y140F (tRNA-acetylating toxin, Y140F mutant) (enzyme)
chain: MGRVTAPEPLSAFHQVAEFVSGEAVLDDWLKQKGLKNQALGAARTFVVCKKDTKQVAGFYSLATGSVNHTEATGNLRRNMPDPIPVIILARLAVDLSFHGKGLGADLLHDAVLRCYRVAENIGVRAIMVHALTEEAKNFFIHHGFKSSQTQQRTLFLRLPQ
notes: also called T8^Y140F; source: purified; produced in the absence of its antitoxin A8 (E. coli expression strain BL21)
B2: TacT (tRNA-acetylating toxin), wild type (enzyme)
chain: MGRVTAPEPLSAFHQVAEFVSGEAVLDDWLKQKGLKNQALGAARTFVVCKKDTKQVAGFYSLATGSVNHTEATGNLRRNMPDPIPVIILARLAVDLSFHGKGLGADLLHDAVLRCYRVAENIGVRAIMVHALTEEAKNFYIHHGFKSSQTQQRTLFLRLPQ
notes: also called T8; the toxin

Columns and labels:
[1] = target: the molecule itself; experiment: crystal structure; T8^Y140F with Ac-CoA bound, 1.7 Å, space group P2_(1); a dimer in the asymmetric unit
[2] = target: the molecule itself; experiment: SEC-MALS; size-exclusion chromatography with multi-angle laser light scattering (SEC-MALLS), in solution

| Protein | binding result [1] | stoichiometry N [2] |
| --- | --- | --- |
| B1 | binds |  |
| B2 |  | 2 |
